The values below come from paper PMC10786891, “Massively parallel profiling of RNA-targeting CRISPR-Cas13d”.

B1: target 1 insU 3' of 5,insC 3' of 3 (mixed)
RNA 1: CACCCGUGCAAAAAUGCAGGGGUCUAAAACUGAGCGGAUAACCUCUCUAUGG
RNA 2: GGGAAUGGAUCCACAUCUACGAAUUCGUACCAUAGAGAGGUUAUCCGUCUCCACCGAGAUCGGAAGAGCACACGU
B2: target 1 G15U,G17C (mixed)
RNA 1: B1 RNA 1
RNA 2: GGGAAUGGAUCCACAUCUACGAAUUCGUACCAUACAUAGGUUAUCCGCUCACCGAGAUCGGAAGAGCACACGU
B3: target 1 insU 3' of 12,insA 3' of 5 (mixed)
RNA 1: B1 RNA 1
RNA 2: B1 RNA 2 with A43U, U44A, C45U, G47C, U48G, C49A, U50C, C51U
B4: target 1 insA 3' of 17,insC 3' of 3 (mixed)
RNA 1: B1 RNA 1
RNA 2: B1 RNA 2 with G37A, A38G, G39A, U41G, A43U, U44A, C45U, G47C, U48G
B5: target 1 insG 3' of 21,insA 3' of 7 (mixed)
RNA 1: B1 RNA 1
RNA 2: GGGAAUGGAUCCACAUCUACGAAUUCGUACCGAUAGAGAGGUUAUCACGCUCACCGAGAUCGGAAGAGCACACGU
B6: target 1 A14G,C21U (mixed)
RNA 1: B1 RNA 1
RNA 2: B2 RNA 2 with C31U, C35G, U37G, A38G
B7: target 1 insC 3' of 17,insC 3' of 3 (mixed)
RNA 1: B1 RNA 1
RNA 2: GGGAAUGGAUCCACAUCUACGAAUUCGUACCAUAGCAGAGGUUAUCCGCUCCACCGAGAUCGGAAGAGCACACGU
B8: target 1 C2A,U19A (mixed)
RNA 1: B1 RNA 1
RNA 2: B2 RNA 2 with U33A, C35G, U37G, C50A
B9: target 1 A1U,U11G (mixed)
RNA 1: B1 RNA 1
RNA 2: B2 RNA 2 with C35G, U37G, U41G, A51U
B10: target 1 insU 3' of 22,insG 3' of 1 (mixed)
RNA 1: B1 RNA 1
RNA 2: B7 RNA 2 with C31U, A32C, U33A, A34U, G35A, C36G, C52A, A53G
B11: target 1 insC 3' of 12,insA 3' of 8 (mixed)
RNA 1: B1 RNA 1
RNA 2: GGGAAUGGAUCCACAUCUACGAAUUCGUACCAUAGAGAGGCUUAUACCGCUCACCGAGAUCGGAAGAGCACACGU
B12: target 1 G5A,U10G (mixed)
RNA 1: B1 RNA 1
RNA 2: B2 RNA 2 with C35G, U37G, U42G, G47A
B13: target 1 U3G,G13C (mixed)
RNA 1: B1 RNA 1
RNA 2: B2 RNA 2 with C35G, U37G, G39C, U49G
B14: target 1 insC 3' of 10,insG 3' of 6 (mixed)
RNA 1: B1 RNA 1
RNA 2: B11 RNA 2 with C41U, U43C, A46C, C48G
B15: target 1 insU 3' of 14,insC 3' of 3 (mixed)
RNA 1: B1 RNA 1
RNA 2: B7 RNA 2 with C36A, A37G, G38A, A39U
B16: target 1 insU 3' of 22,insU 3' of 1 (mixed)
RNA 1: B1 RNA 1
RNA 2: B7 RNA 2 with C31U, A32C, U33A, A34U, G35A, C36G, C52A, A53U
B17: target 1 insU 3' of 7,insA 3' of 5 (mixed)
RNA 1: B1 RNA 1
RNA 2: B1 RNA 2 with C46U, G47C, U48G, C49A, U50C, C51U
B18: target 1 del15,del17 (mixed)
RNA 1: B1 RNA 1
RNA 2: GGGAAUGGAUCCACAUCUACGAAUUCGUACCAUAAAGGUUAUCCGCUCACCGAGAUCGGAAGAGCACACGU
B19: target 1 insU 3' of 22,insA 3' of 2 (mixed)
RNA 1: B1 RNA 1
RNA 2: B7 RNA 2 with C31U, A32C, U33A, A34U, G35A, C36G, C52A
B20: target 1 A9U,A18C (mixed)
RNA 1: B1 RNA 1
RNA 2: B2 RNA 2 with A34C, C35G, U37G, A43U
B21: target 1 insU 3' of 22,insC 3' of 1 (mixed)
RNA 1: B1 RNA 1
RNA 2: B7 RNA 2 with C31U, A32C, U33A, A34U, G35A, C36G, C52A, A53C
B22: target 1 insA 3' of 21,insC 3' of 9 (mixed)
RNA 1: B1 RNA 1
RNA 2: B5 RNA 2 with G32A, U45C, C46U, A47C
B23: target 1 G13U,A14U (mixed)
RNA 1: B1 RNA 1
RNA 2: B2 RNA 2 with C35G, U37G, A38U, G39U
B24: target 1 C4G,U10A (mixed)
RNA 1: B1 RNA 1
RNA 2: B2 RNA 2 with C35G, U37G, U42A, C48G
B25: target 1 U3G,A9C (mixed)
RNA 1: B1 RNA 1
RNA 2: B2 RNA 2 with C35G, U37G, A43C, U49G
B26: target 1 insG 3' of 22,insA 3' of 3 (mixed)
RNA 1: B1 RNA 1
RNA 2: B7 RNA 2 with C31G, A32C, U33A, A34U, G35A, C36G, C51A
B27: target 1 insA 3' of 21,insG 3' of 16 (mixed)
RNA 1: B1 RNA 1
RNA 2: B5 RNA 2 with G32A, A39G, G40A, U42G, A44U, U45A, C46U, A47C
B28: target 1 insC 3' of 8 (mixed)
RNA 1: B1 RNA 1
RNA 2: GGGAAUGGAUCCACAUCUACGAAUUCGUACCAUAGAGAGGUUAUCCCGCUCACCGAGAUCGGAAGAGCACACGU
B29: target 1 G5C,G13U (mixed)
RNA 1: B1 RNA 1
RNA 2: B2 RNA 2 with C35G, U37G, G39U, G47C
B30: target 1 G5U,A14C (mixed)
RNA 1: B1 RNA 1
RNA 2: B2 RNA 2 with C35G, U37G, A38C, G47U
B31: target 1 C2A,G12C (mixed)
RNA 1: B1 RNA 1
RNA 2: B2 RNA 2 with C35G, U37G, G40C, C50A

Positions count from the first letter of the chain named. Names and notes keep the numbering of the source.

The target of this data set is T1, EsCas13d, nuclease-dead (Eubacterium siraeum, UniProt B0MS50, R295A;H300A;R849A;H854A).
T1 sequence: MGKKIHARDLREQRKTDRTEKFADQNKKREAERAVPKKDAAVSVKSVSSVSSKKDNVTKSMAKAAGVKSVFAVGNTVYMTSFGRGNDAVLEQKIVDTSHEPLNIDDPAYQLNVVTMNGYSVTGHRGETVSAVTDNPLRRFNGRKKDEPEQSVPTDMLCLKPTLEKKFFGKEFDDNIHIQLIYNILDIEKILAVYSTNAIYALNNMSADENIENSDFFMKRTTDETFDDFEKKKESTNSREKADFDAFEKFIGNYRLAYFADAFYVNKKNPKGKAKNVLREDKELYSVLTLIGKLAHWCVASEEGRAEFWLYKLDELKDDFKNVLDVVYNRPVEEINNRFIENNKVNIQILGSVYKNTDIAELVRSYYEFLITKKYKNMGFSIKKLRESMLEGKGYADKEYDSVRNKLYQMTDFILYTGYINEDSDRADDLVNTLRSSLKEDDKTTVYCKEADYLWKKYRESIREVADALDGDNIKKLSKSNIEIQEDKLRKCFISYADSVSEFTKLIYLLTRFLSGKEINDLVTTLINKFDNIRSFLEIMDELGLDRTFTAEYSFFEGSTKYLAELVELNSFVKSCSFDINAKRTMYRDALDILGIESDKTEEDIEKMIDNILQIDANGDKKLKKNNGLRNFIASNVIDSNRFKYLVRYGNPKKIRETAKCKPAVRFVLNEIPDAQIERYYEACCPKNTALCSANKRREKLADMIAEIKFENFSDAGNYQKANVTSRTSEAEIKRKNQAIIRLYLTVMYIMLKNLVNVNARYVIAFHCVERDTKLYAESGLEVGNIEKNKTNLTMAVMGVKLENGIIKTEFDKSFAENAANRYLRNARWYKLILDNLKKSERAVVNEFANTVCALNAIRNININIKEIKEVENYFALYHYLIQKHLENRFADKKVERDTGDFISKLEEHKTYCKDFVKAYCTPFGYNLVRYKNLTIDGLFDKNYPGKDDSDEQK
Description: crRNA (strand 1, pre-loaded); Mg2+; 40 mM Tris-HCl pH 7.5, 150 mM NaCl, 6 mM MgCl2, 1 mM DTT, 0.1% Tween-20, 0.2 mg/ml BSA; 25 C; 10 min per concentration, then washed. The settings on record: tags: His6-TwinStrep-SUMO cleaved; N-terminal SNAP kept (SNAP-Surface 488); label: 3' end held by stalled T7 RNA polymerase.
What is called Kd is the free concentration of one partner at which half of the binding sites on the other are occupied at equilibrium, for simple one-to-one binding. A high value points to weaker binding. B1 registered a Kd of 38 ± 6 nM.
As for B2, the figure is 34.6 ± 3 nM; as for B3, 4.32 ± 0.35 nM.
B4 gave a Kd of 14.8 ± 1.1 nM.
B5 displayed a Kd of 46 ± 5 nM.
Take B6: the equilibrium dissociation constant (Kd) was found to be 6.9 ± 0.4 nM.
B7: the Kd was found to be 60 ± 13 nM.
In turn, B8 returned a Kd of 32.7 ± 3.3 nM.
In the case of B9, binding was characterised by a dissociation constant (Kd) of 20.8 ± 0.9 nM.
On to B10, for which binding was put at a Kd of 35 ± 4 nM.
The figure for B11 is 12 ± 0.9 nM; for B12 it is 35 ± 4 nM.
As for B13, the figure is 30.3 ± 2.3 nM.
The figure for B14 is 18.8 ± 2.1 nM.
For the molecule B15, the Kd amounted to 80 ± 40 nM.
B16 gave an equilibrium dissociation constant (Kd) of 37 ± 6 nM.
For B17, the affinity, expressed as Kd, was 17.4 ± 1 nM.
B18: binding was put at a Kd of 90 ± 40 nM.
For the molecule B19, binding was put at a Kd of 33.5 ± 2.8 nM.
As for B20, the figure is 60 ± 5 nM; as for B21, 29.1 ± 2.4 nM; as for B22, 31.5 ± 2 nM.
The figure for B23 is 8.2 ± 0.4 nM; for B24 it is 4.87 ± 0.25 nM.
In the case of B25, the dissociation constant Kd was determined as 9.4 ± 0.7 nM.
With B26, binding was put at a Kd of 25.6 ± 2.3 nM.
For the molecule B27, the affinity, expressed as Kd, was 51 ± 5 nM.
For the molecule B28, binding was put at a Kd of 13.2 ± 0.7 nM.
Molecule B29 gave a Kd of 40 ± 9 nM.
B30 gave a Kd of 20.7 ± 1.5 nM.
Regarding B31, the equilibrium dissociation constant (Kd) was 7.21 ± 0.25 nM.
